Measured values from the RNAGym collection of RNA variant scans (doi:10.1093/molbev/msab373).

B1: Azoarcus group I ribozyme (parent)
chain: GUGCCUUGCGCCGGGAAACCACGCAAGGGAUGGUGUCAAAUUCGGCGAAACCUAAGCGCCCGCCCGGGCGUAUGGCAACGCCGAGCCAAGCUUCGGCGCCUGCGCCGAUGAAGGUGUAGAGACUAGACGGCACCCACCUAAGGCAAACGCUAUGGUGAAGGCAUAGUCCAGGGAGUGGCGAAAGUCACACAAACCGG

Variants of: B1
Test: reverse-splicing fitness (ratio to wild type); higher = more active; in vitro selection; Mg2+ level not given
In short: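 An in vitro group I ribozyme library with randomized positions was T7-transcribed and gel-purified. In triplicate, 10 pmol RNA in EPPS pH 7.5 was reacted with 50 pmoles of a 30-nt RNA substrate for 1 h at 37 °C across several added MgCl2 levels (1–48 mM), then stopped with EDTA. Products were reverse transcribed from a substrate-complementary primer, PCR-amplified and sequenced (HiSeq 4000). Fitness is a variant's read proportion after selection over that before, normalised to wild type.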

| Variant | reverse-splicing fitness |
| --- | --- |
| C82U A111U A120G A145G C150A C169U | 0.00848 |
| C82U A111U A120G A145G C150A C169U U176A | 0.0205 |
| C82U A111U A120G A145G C150A C169U U176C | 0.0157 |
| C82U A111U A120G A145G C150A C169U U176G | 0.00536 |
| C82U A111U A120G A145G C150A U176A | 0.0093 |
| C82U A111U A120G A145G C150A U176C | 0.0166 |
| C82U A111U A120G A145G C150A U176G | 0.00603 |
| C82U A111U A120G A145G C150G | 0.00732 |
| C82U A111U A120G A145G C150G C169A | 0.00888 |
| C82U A111U A120G A145G C150G C169A U176A | 0.0128 |
| C82U A111U A120G A145G C150G C169A U176C | 0.0113 |
| C82U A111U A120G A145G C150G C169A U176G | 0.00764 |
| C82U A111U A120G A145G C150G C169G | 0.00719 |
| C82U A111U A120G A145G C150G C169G U176A | 0.00842 |
| C82U A111U A120G A145G C150G C169G U176C | 0.0107 |
| C82U A111U A120G A145G C150G C169G U176G | 0.00498 |
| C82U A111U A120G A145G C150G C169U | 0.0089 |
| C82U A111U A120G A145G C150G C169U U176A | 0.012 |
| C82U A111U A120G A145G C150G C169U U176C | 0.0112 |
| C82U A111U A120G A145G C150G C169U U176G | 0.00647 |
| C82U A111U A120G A145G C150G U176A | 0.0062 |

| Variant | reverse-splicing fitness |
| --- | --- |
| C82U A111U A120G A145G C150G U176C | 0.00919 |
| C82U A111U A120G A145G C150G U176G | 0.00543 |
| C82U A111U A120G A145G C150U | 0.0119 |
| C82U A111U A120G A145G C150U C169A | 0.00995 |
| C82U A111U A120G A145G C150U C169A U176A | 0.0135 |
| C82U A111U A120G A145G C150U C169A U176C | 0.0123 |
| C82U A111U A120G A145G C150U C169A U176G | 0.00525 |
| C82U A111U A120G A145G C150U C169G | 0.00964 |
| C82U A111U A120G A145G C150U C169G U176A | 0.0129 |
| C82U A111U A120G A145G C150U C169G U176C | 0.016 |
| C82U A111U A120G A145G C150U C169G U176G | 0.00411 |
| C82U A111U A120G A145G C150U C169U | 0.0104 |
| C82U A111U A120G A145G C150U C169U U176A | 0.0194 |
| C82U A111U A120G A145G C150U C169U U176C | 0.014 |
| C82U A111U A120G A145G C150U C169U U176G | 0.00481 |
| C82U A111U A120G A145G C150U U176A | 0.00911 |
| C82U A111U A120G A145G C150U U176C | 0.0171 |
| C82U A111U A120G A145G C150U U176G | 0.00569 |
| C82U A111U A120G A145G C169A | 0.01 |
| C82U A111U A120G A145G C169A U176A | 0.0205 |
| C82U A111U A120G A145G C169A U176C | 0.031 |

| Variant | reverse-splicing fitness |
| --- | --- |
| C82U A111U A120G A145G C169A U176G | 0.00433 |
| C82U A111U A120G A145G C169G | 0.00995 |
| C82U A111U A120G A145G C169G U176A | 0.0214 |
| C82U A111U A120G A145G C169G U176C | 0.027 |
| C82U A111U A120G A145G C169G U176G | 0.00377 |
| C82U A111U A120G A145G C169U | 0.00849 |
| C82U A111U A120G A145G C169U U176A | 0.0196 |
| C82U A111U A120G A145G C169U U176C | 0.0159 |
| C82U A111U A120G A145G C169U U176G | 0.00458 |
| C82U A111U A120G A145G U176A | 0.0127 |
| C82U A111U A120G A145G U176C | 0.0197 |
| C82U A111U A120G A145G U176G | 0.00453 |
| C82U A111U A120G A145U | 0.0147 |
| C82U A111U A120G A145U C150A | 0.00808 |
| C82U A111U A120G A145U C150A C169A | 0.00884 |
| C82U A111U A120G A145U C150A C169A U176A | 0.0137 |
| C82U A111U A120G A145U C150A C169A U176C | 0.0092 |
| C82U A111U A120G A145U C150A C169A U176G | 0.00508 |
| C82U A111U A120G A145U C150A C169G | 0.00728 |
| C82U A111U A120G A145U C150A C169G U176A | 0.0132 |
| C82U A111U A120G A145U C150A C169G U176C | 0.0136 |

| Variant | reverse-splicing fitness |
| --- | --- |
| C82U A111U A120G A145U C150A C169G U176G | 0.0044 |
| C82U A111U A120G A145U C150A C169U | 0.0062 |
| C82U A111U A120G A145U C150A C169U U176A | 0.0203 |
| C82U A111U A120G A145U C150A C169U U176C | 0.0141 |
| C82U A111U A120G A145U C150A C169U U176G | 0.00425 |
| C82U A111U A120G A145U C150A U176A | 0.0096 |
| C82U A111U A120G A145U C150A U176C | 0.0112 |
| C82U A111U A120G A145U C150A U176G | 0.00425 |
| C82U A111U A120G A145U C150G | 0.00635 |
| C82U A111U A120G A145U C150G C169A | 0.00759 |
| C82U A111U A120G A145U C150G C169A U176A | 0.00889 |
| C82U A111U A120G A145U C150G C169A U176C | 0.00812 |
| C82U A111U A120G A145U C150G C169A U176G | 0.00439 |
| C82U A111U A120G A145U C150G C169G | 0.00671 |
| C82U A111U A120G A145U C150G C169G U176A | 0.00623 |
| C82U A111U A120G A145U C150G C169G U176C | 0.00435 |
| C82U A111U A120G A145U C150G C169G U176G | 0.00385 |
| C82U A111U A120G A145U C150G C169U | 0.00779 |
| C82U A111U A120G A145U C150G C169U U176A | 0.0116 |
| C82U A111U A120G A145U C150G C169U U176C | 0.0111 |
